Patent US8247168B2, “Regulation of gene expression by protein methylation” (University of Southern California, priority 1998, dated 2012)

Tests used:
[1] = system: androgen receptor, estrogen receptor, and thyroid hormone receptor; test: Reporter gene activation by hormone-activated nuclear receptors in transiently transfected CV-1 cells; format: cell-based; conditions: co-expression of CARM1 with the NR and GRIP1, over NR+GRIP1 (lane e)
Method: (A) Transient transfection assays with CV-1 cells were performed as in FIG. 5 with 0.5 μg of GK1 reporter gene and 0.5 μg of each of the indicated vectors. (B) CV-1 cells were transiently transfected as in FIG. 5 with the following vectors, as indicated: 0.5 μg of nuclear receptor expression vector pSVAR0 (Brinkmann, A. O. et al. (1989) J. Steroid Biochem. Molec. Biol. 34:307) expressing AR, pHE0 (Green, S. et al. (1988) Nucleic Acids Res. 16:369) expressing ER, or pCMX.hTRβ1 (Feng, W. et al. (1998) Science 280:1747) expressing TR; 0.5 μg of a luciferase reporter gene with an appropriate promoter, MMTV promoter for AR, or MMTV promoter with the native glucocorticoid response elements replaced by a single estrogen response element for ER or palindromic thyroid hormone response element for TR (Umesono, K. and R. M. Evans (1989) Cell 57:1139); 0.5 μg of pSG5.HA-GRIP1; and 0.5 μg of pSG5.HA-CARM1 or pSG5.HA-CARM1 (VLD mutant). Transfection efficiency was monitored by using βgalactosidase activity expressed from 0.1 μg of co-transfected pCMV-βgal vector (Hong, H. et al. (1996) Proc. Natl. Acad. Sci. USA 93:4948-4952) as an internal control. After transfection, cells were grown in charcoal-treated serum; where indicated 20 nM hormone (H), i.e. dihydrotestosterone for AR, estradiol for ER, or triiodothyronine for TR, was included during the last 40 h of culture. […]

Gal4 DBD-GRIP1c = target: T1, Gal4 DBD-GRIP1c (Mus musculus, UniProt Q61026); test: Reporter gene activation by Gal4 DBD-GRIP1c in transiently transfected CV-1 cells; format: cell-based; conditions: co-expression with Gal4 DBD-GRIP1c, dose-dependent
T1 construct: coding for Gal4 DBD-GRIP1c where GRIP1c is GRIP1 amino acids 1121-1462; expressed in transfected cells; host or cells: CV-1 cells
Method: A) CV-1 cells in 6-well dishes (3.3 cm diameter well) were transiently transfected with 0.5 of μg pM.GRIP1c (coding for Gal4 DBD-GRIP1c where GRIP1c is GRIP1 amino acids 1121-1462), 0.5 μg of GK1 reporter gene (luciferase gene controlled by Gal4 binding sites) (Webb, P. et al., (1998) Mol. Endocrinol. 12:1605), and 0-0.8 μg of pSG5.HA-CARM1, using Superfectin (Qiagen) according to manufacturer's protocol. Total DNA was adjusted to 2.0 μg per well with the appropriate amount of pSG5. Cell extracts were prepared approximately 48 h after transfection and assayed with Promega Luciferase Assay kit. Relative light units of luciferase activity presented are the mean and standard deviation of three transfected wells. B) CV-1 cells were transfected as in A with the indicated amount of pM.GRIP1c and zero or 0.5 μg of pSG5.HA-CARM1.
In transient transfections of CV-1 cells, Gal4 DBD-GRIP1c weakly activates expression of a reporter gene with a promoter containing Gal4 binding sites; co-expression of CARM1 enhances reporter gene activity in a dose-dependent manner and provides a maximum stimulation of more than 10-fold (FIG. 5). CARM1 expression has little if any effect on the activity of Gal4DBD alone (FIG. 6A). CARM1 also enhances the activity of full length GRIP1 fused to Gal4DBD.

B1: CARM1: novel murine protein arginine methyltransferase and transcriptional coactivator, 608 amino acids (protein, listed as Mus musculus)
chain: MAAAAATAVGPGAGSAGVAGPGGAGPCATVSVFPGARLLTIGDANGEIQRHAEQQALRLEVRAGPDAAGIALYSHEDVCVFKCSVSRETECSRVGRQSFIITLGCNSVLIQFATPHDFCSFYNILKTCRGHTLERSVFSERTEESSAVQYFQFYGYLSQQQNMMQDYVRTGTYQRAILQNHTDFKDKIVLDVGCGSGILSFFAAQAGARKIYAVEASTMAQHAEVLVKSNNLTDRIVVIPGKVEEVSLPEQVDIIISEPMGYMLFNERMLESYLHAKKYLKPSGNMFPTIGDVHLAPFTDEQLYMEQFTKANFRYQPSFHGVDLSALRGAAVDEYFRQPVVDTFDIRILMAKSVKYTVNFLEAKEGDLHRIEIPFKFHMLHSGLVHGLAFWFDVAFIGSIMTVWLSTAPTEPLTHWYQVRCLFQSPLFAKAGDTLSGTCLLIANKRQSYDISIVAQVDQTGSKSSNLLDLKNPFFRYTGTTPSPPPGSHYTSPSENMWNTGSTYNLSSGVAVAGMPTAYDLSSVIAGGSSVGHNNLIPLANTGIVNHTHSRMGSIMSTGIVQGSSGAQGGGGSSSAHYAVNNQFTMGGPAISMASPMSIPTNTMHYGS
Q: How did the “further enhancement of reporter gene expression” value [1] turn out when B1 was run?
A: The value was 2 to 4 fold.

Q: What about the “maximum stimulation of reporter gene activity” value (Gal4 DBD-GRIP1c) of the same molecule?
A: The value was “more than 10 fold”.
